Experimental findings from the supplement of paper PMC10567573 are described below.

First the molecules themselves.
B1: CFHR2 (parent)
chain: FVENGHSESSGQTHLEGDTVQIIC
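Note: lentivirally expressed fusions sorted by FACS into six bins by GFP to DsRed ratio, PSI derived from sequencing read proportions per bin multiplied by bin number.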

The variants in this series derive from B1. Put plainly: protein stability index of a GFP-peptide fusion (GPS, HEK-293T) (PSI 1-6); higher = more stable. The note with it: c terminus: a fixed tail appended.
As to FVENGHYESSGQTHLEGDTVQIIC [S7Y], the protein stability index was found to be 1.64. For FVENGHTESSGQTHLEGDTVQIIC [S7T], the protein stability index worked out at 3.24.

With FVENGHQESSGQTHLEGDTVQIIC [S7Q], the protein stability index turned out to be 3.04.

For the variant FVENGHVESSGQTHLEGDTVQIIC [S7V], the protein stability index stood at 2.39. Then FVENGHGESSGQTHLEGDTVQIIC [S7G], with 2.63; and FVENGHPESSGQTHLEGDTVQIIC [S7P], with 3.12. Then FVENGHDESSGQTHLEGDTVQIIC [S7D], with 3.09; and FVENGHCESSGQTHLEGDTVQIIC [S7C], with 2.34. Turning to FVENGHEESSGQTHLEGDTVQIIC [S7E], the protein stability index stood at 3.87. On to FVENGHFESSGQTHLEGDTVQIIC [S7F], for which the protein stability index was determined as 1.43. With FVENGHIESSGQTHLEGDTVQIIC [S7I], the protein stability index was determined as 2.42. For FVENGHWESSGQTHLEGDTVQIIC [S7W], the protein stability index amounted to 4.33. The result for FVENGHLESSGQTHLEGDTVQIIC [S7L] reads 3.1; that for FVENGHHESSGQTHLEGDTVQIIC [S7H], 2.75; that for FVENGHMESSGQTHLEGDTVQIIC [S7M], 2.19.

For FVENGHAESSGQTHLEGDTVQIIC [S7A], the protein stability index was found to be 2.72. Then FVENGHNESSGQTHLEGDTVQIIC [S7N], with 3.14; and FVENGHKESSGQTHLEGDTVQIIC [S7K], with 2.84. As for FVENGHRESSGQTHLEGDTVQIIC [S7R], the protein stability index came out at 2.29. Turning to FVEIGHSESSGQTHLEGDTVQIIC [N4I], the protein stability index was 2.13. Turning to FVECGHSESSGQTHLEGDTVQIIC [N4C], the protein stability index stood at 1.98. The result for FVERGHSESSGQTHLEGDTVQIIC [N4R] reads 2.05. Then FVEYGHSESSGQTHLEGDTVQIIC [N4Y], with 2.37; and FVEAGHSESSGQTHLEGDTVQIIC [N4A], with 2.42; and FVEKGHSESSGQTHLEGDTVQIIC [N4K], with 3.03. The result for FVEQGHSESSGQTHLEGDTVQIIC [N4Q] reads 2.81; that for FVEHGHSESSGQTHLEGDTVQIIC [N4H], 2.62. For the variant FVEFGHSESSGQTHLEGDTVQIIC [N4F], the protein stability index turned out to be 1.83. Take FVELGHSESSGQTHLEGDTVQIIC [N4L]: the protein stability index is 1.76. Regarding FVEGGHSESSGQTHLEGDTVQIIC [N4G], the protein stability index turned out to be 2.59. Then FVEWGHSESSGQTHLEGDTVQIIC [N4W], with 2.8; and FVESGHSESSGQTHLEGDTVQIIC [N4S], with 2.4. FVEDGHSESSGQTHLEGDTVQIIC [N4D]: the protein stability index came out at 3.92. The result for FVEPGHSESSGQTHLEGDTVQIIC [N4P] reads 2.53; that for FVEMGHSESSGQTHLEGDTVQIIC [N4M], 1.8. Regarding FVEVGHSESSGQTHLEGDTVQIIC [N4V], the protein stability index came to 2.18. Take FVEEGHSESSGQTHLEGDTVQIIC [N4E]: the protein stability index is 3.47. The result for FVETGHSESSGQTHLEGDTVQIIC [N4T] reads 2.51; that for FVENGHSESSAQTHLEGDTVQIIC [G11A], 2.56; that for FVENFHSESSGQTHLEGDTVQIIC [G5F], 2.55.

Consider FVENDHSESSGQTHLEGDTVQIIC [G5D], for which the protein stability index was 3.64.

In the case of FVENVHSESSGQTHLEGDTVQIIC [G5V], the protein stability index stood at 2.87. Then FVENAHSESSGQTHLEGDTVQIIC [G5A], with 2.77; and FVENSHSESSGQTHLEGDTVQIIC [G5S], with 3.01; and FVENIHSESSGQTHLEGDTVQIIC [G5I], with 2.2. FVENNHSESSGQTHLEGDTVQIIC [G5N]: the protein stability index was found to be 3.23. For FVENQHSESSGQTHLEGDTVQIIC [G5Q], the protein stability index is 2.57. With FVENCHSESSGQTHLEGDTVQIIC [G5C], the protein stability index turned out to be 2.03.

As to FVENLHSESSGQTHLEGDTVQIIC [G5L], the protein stability index came to 2.77. On to FVENPHSESSGQTHLEGDTVQIIC [G5P], for which the protein stability index was found to be 2.27. Then FVENHHSESSGQTHLEGDTVQIIC [G5H], with 2.49; and FVENEHSESSGQTHLEGDTVQIIC [G5E], with 4.09; and FVENRHSESSGQTHLEGDTVQIIC [G5R], with 1.82. Take FVENWHSESSGQTHLEGDTVQIIC [G5W]: the protein stability index is 3.48.

As to FVENKHSESSGQTHLEGDTVQIIC [G5K], the protein stability index worked out at 2.64.

Consider FVENTHSESSGQTHLEGDTVQIIC [G5T], for which the protein stability index is 2.97.

FVENMHSESSGQTHLEGDTVQIIC [G5M]: the protein stability index was 2.28. Turning to FVENYHSESSGQTHLEGDTVQIIC [G5Y], the protein stability index was determined as 3.09. Then FCENGHSESSGQTHLEGDTVQIIC [V2C], with 4. Then FGENGHSESSGQTHLEGDTVQIIC [V2G], with 3.62; and FLENGHSESSGQTHLEGDTVQIIC [V2L], with 3.59.

FAENGHSESSGQTHLEGDTVQIIC [V2A]: the protein stability index worked out at 4. The result for FTENGHSESSGQTHLEGDTVQIIC [V2T] reads 3.94; that for FFENGHSESSGQTHLEGDTVQIIC [V2F], 3.62; that for FQENGHSESSGQTHLEGDTVQIIC [V2Q], 3.81. In the case of FMENGHSESSGQTHLEGDTVQIIC [V2M], the protein stability index is 3.12.

FKENGHSESSGQTHLEGDTVQIIC [V2K]: the protein stability index is 4.01. Then FDENGHSESSGQTHLEGDTVQIIC [V2D], with 4.19. As to FPENGHSESSGQTHLEGDTVQIIC [V2P], the protein stability index came to 3.88. The result for FWENGHSESSGQTHLEGDTVQIIC [V2W] reads 3.35. The result for FRENGHSESSGQTHLEGDTVQIIC [V2R] reads 3.96. The result for FNENGHSESSGQTHLEGDTVQIIC [V2N] reads 4.16; that for FHENGHSESSGQTHLEGDTVQIIC [V2H], 3.82; that for FIENGHSESSGQTHLEGDTVQIIC [V2I], 3.72.

For the variant FSENGHSESSGQTHLEGDTVQIIC [V2S], the protein stability index amounted to 4.18. Then FYENGHSESSGQTHLEGDTVQIIC [V2Y], with 3.44.

For the variant FEENGHSESSGQTHLEGDTVQIIC [V2E], the protein stability index worked out at 4.54.

For FVENGHSESIGQTHLEGDTVQIIC [S10I], the protein stability index stood at 1.56. As to FVENGHSESEGQTHLEGDTVQIIC [S10E], the protein stability index was found to be 3.33. Regarding FVENGHSESVGQTHLEGDTVQIIC [S10V], the protein stability index was 1.75.

With FVENGHSESHGQTHLEGDTVQIIC [S10H], the protein stability index was found to be 2.34. The result for FVENGHSESFGQTHLEGDTVQIIC [S10F] reads 1.97; that for FVENGHSESMGQTHLEGDTVQIIC [S10M], 2.08; that for FVENGHSESCGQTHLEGDTVQIIC [S10C], 2. Then FVENGHSESNGQTHLEGDTVQIIC [S10N], with 2.99. Consider FVENGHSESKGQTHLEGDTVQIIC [S10K], for which the protein stability index was found to be 2.65. The result for FVENGHSESDGQTHLEGDTVQIIC [S10D] reads 3.51.

Take FVENGHSESTGQTHLEGDTVQIIC [S10T]: the protein stability index was found to be 2.73. Then FVENGHSESQGQTHLEGDTVQIIC [S10Q], with 2.77; and FVENGHSESAGQTHLEGDTVQIIC [S10A], with 2.65. The result for FVENGHSESPGQTHLEGDTVQIIC [S10P] reads 3.49; that for FVENGHSESYGQTHLEGDTVQIIC [S10Y], 1.94.

On to FVENGHSESLGQTHLEGDTVQIIC [S10L], for which the protein stability index was 2.31. Then FVENGHSESGGQTHLEGDTVQIIC [S10G], with 2.87.
